For assay [1], the target named is Dictyostelium discoideum dye-decolorizing peroxidase DyPA (Dictyostelium discoideum). Briefly: AUC; sedimentation velocity, 50,000 rpm, 20 °C, 50 mM Tris-HCl pH 8.0, 150 mM NaCl; heme-reconstituted DyPA at 2.1, 6.3, 18.9 and 33.6 µM (monomer concentrations); dimer, no monomer-dimer equilibrium seen in this range.
The target is the same in assay [2]. Briefly: AUC; sedimentation velocity, 50,000 rpm, 20 °C, 50 mM Tris-HCl pH 8.0, 150 mM NaCl; 20 µM apo-DyPA with a heme saturation of only 7%.

The values below come from article PMC8230527, “Structural and Biochemical Characterization of a Dye-Decolorizing Peroxidase from Dictyostelium discoideum” (International Journal of Molecular Sciences, 2021).

As for “Dictyostelium discoideum dye-decolorizing peroxidase DyPA (enzyme)”, in assay [1], the percent of the protein sedimenting as the dimer species worked out at 90% and the stoichiometry N (as a rule, a count of units in the complex or per binding partner) was 2. Moreover, the stoichiometry N in assay [2] amounted to 2.
